Measurements published in patent US20140154256A1 (published 2014).

Legend:
[1] = biological target: T1, recombinant human IL-1α (human, UniProt P01583 113-271); experiment: SPR (Biacore); hIL-1α as 1st antigen
T1 construct: Bought recombinant protein; also called rhIL-1α; hIL-1α
T1 sequence (looked up): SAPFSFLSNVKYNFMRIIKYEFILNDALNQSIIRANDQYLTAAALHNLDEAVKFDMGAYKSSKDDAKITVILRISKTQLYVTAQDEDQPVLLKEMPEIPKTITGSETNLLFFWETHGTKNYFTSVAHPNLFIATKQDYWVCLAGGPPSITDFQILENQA
Experimental: (§1) The equilibrium dissociation constant (M) of the reaction between DVD-Ig and rhIL1α/β was then calculated from the kinetic rate constants by the following formula: KD=koff/kon. Aliquots of rhIL1α/β samples were also simultaneously injected over a blank reference and reaction CM surface to record and subtract any nonspecific binding background to eliminate the majority of the refractive index change and injection noise. Surfaces were regenerated with two subsequent […] injections of 10 mM Glycine (pH 1.5) at a flow rate of […]. The anti-Fc antibody immobilized surfaces were completely regenerated and retained their full capture capacity over twelve cycles. The apparent stoichiometry of the captured DVD-Ig-rhIL1α/β complex was calculated under saturating binding conditions (steady-state equilibrium) using the following formula: […]
(§2) In addition, tetravalent dual-specific antigen binding of DVD-Ig was also analyzed by Biacore (Table 14). DVD-Ig was first captured via a goat anti-human Fc antibody on the Biacore sensor chip, and the first antigen was injected and a binding signal observed. As the DVD-Ig was saturated by the first antigen, the second antigen was then injected and the second signal observed. This was done either by first injecting IL-1β then IL-1α or by first injecting IL-1α followed by IL-1β for DVD2-Ig. In either sequence, a dual-binding activity was detected. […]

[2] = biological target: T2, recombinant human IL-1β (human, UniProt P01584 117-269); experiment: SPR (Biacore)
T2 construct: also called rhIL-1β; hIL-1β
Experimental: as §1, with “Purified DVD-Ig samples were diluted in HEPES-buffered saline for capture across goat anti-human IgG Fc specific reaction surfaces and injected over reaction matrices at a flow rate of […]. The association and dissociation rate constants, kon (M-1s-1) and koff (s−1) were determined under a continuous flow rate of […]. […] The equilibrium” for “The equilibrium”
(§3) The affinity of the two DVD-Igs to hIL-1 as compared to the affinity of chimeric Abs to hIL-1 was similar as indicated by the evaluation of the stoichiometry to IL-1. Both chimeric Abs, being bivalent monospecific, bound to IL-1α and IL-1β on Biocore with a stoichiometry of 1.6 and 1.7, respectively. This is common for an IgG due to inter-molecular interference when antibodies are immobilized densely on the Biacore sense chip resulting in stoichiometry being in the range from 1.5 to 2.0.

[3] = biological target: T1, recombinant human IL-1α; experiment: SPR (Biacore)
Experimental: as §1, with “Purified DVD-Ig samples were diluted in HEPES-buffered saline for capture across goat anti-human IgG Fc specific reaction surfaces and injected over reaction matrices at a flow rate of […]. The association and dissociation rate constants, kon (M-1s-1) and koff (s−1) were determined under a continuous flow rate of […]. […] The equilibrium” for “The equilibrium”
as §3

[4] = biological target: T2, recombinant human IL-1β; experiment: SPR (Biacore); hIL-1β as 2nd antigen, DVD2-Ig already occupied by hIL-1α
Experimental: as §1, §2

[5] = biological target: T2, recombinant human IL-1β; experiment: SPR (Biacore); hIL-1β as 1st antigen
Experimental: as §1, §2

[6] = biological target: T2, recombinant human IL-1β; experiment: cell-based or functional assay
[7] = biological target: T1, recombinant human IL-1α; experiment: cell-based or functional assay
[8] = biological target: T1, recombinant human IL-1α; experiment: SPR (Biacore); hIL-1α as 2nd antigen, DVD2-Ig already occupied by hIL-1β
Experimental: as §1, §2

[9] = biological target: T1, recombinant human IL-1α; experiment: SPR (Biacore); hIL-1α as 2nd antigen, DVD1-Ig already occupied by hIL-1β
Experimental: as §1, §2

[10] = biological target: T2, recombinant human IL-1β; experiment: SPR (Biacore), saturating conditions
[11] = biological target: T1, recombinant human IL-1α; experiment: SPR (Biacore), saturating conditions
[12] = biological target: T2, recombinant human IL-1β; experiment: cell-based or functional assay; remark: listed apart in the source
[13] = biological target: T1, recombinant human IL-1α; experiment: cell-based or functional assay; remark: listed apart in the source
[14] = biological target: T2, recombinant human IL-1β; experiment: SPR (Biacore); hIL-1β as 2nd antigen, DVD1-Ig already occupied by hIL-1α
Experimental: as §1, §2

[15] = biological target: T2, recombinant human IL-1β; experiment: SPR (Biacore 3000); antibody captured via goat anti-human IgG Fc, antigen injected, 1:1 Langmuir fit
Experimental: (§4) The kinetics of DVD-Ig binding to rhIL1-α and rhIL1-β was determined by surface plasmon resonance-based measurements with a Biacore 3000 instrument (Biacore AB, Uppsala, Sweden) using HBS-EP (10 mM HEPES, pH 7.4, 150 mM NaCl, 3 mM EDTA, and 0.005% surfactant P20) at 25° C. All chemicals were obtained from Biacore AB (Uppsala, Sweden) or otherwise from a different source as described herein. Approximately, 5000 RU of goat anti-human IgG Fcγ fragment specific polyclonal antibody (Pierce Biotechnology Inc, Rockford, Ill.) diluted in 10 mM sodium acetate (pH 4.5) was directly immobilized across a CM5 research grade biosensor chip using a standard amine coupling kit according to manufacturer's instructions and procedures at 25 mg/ml. Unreacted moieties on the biosensor surface were blocked with ethanolamine. Modified carboxymethyl dextran surface in flowcell 2 and 4 was used as a reaction surface. Unmodified carboxymethyl dextran without goat anti-human IgG in flow cell 1 and 3 was used as the reference surface. For kinetic analysis, rate equations derived from the 1:1 Langmuir binding model were fitted simultaneously to association and dissociation phases of all ten injections (using global fit analysis) using the Bioevaluation 4.0.1 software. Purified DVD-Ig samples were diluted in HEPES-buffered saline for capture across goat anti-human IgG Fc specific reaction surfaces and injected over reaction matrices at a flow rate of […]. The association and dissociation rate constants, kon (M-1s-1) and koff (s−1) were determined under a continuous flow rate of […]. […] The equilibrium dissociation constant (M) of the reaction between DVD-Ig and rhIL1α/β was then calculated from the kinetic rate constants by the following formula: KD=koff/kon. Aliquots of rhIL1α/β samples were also simultaneously injected over a blank reference and reaction CM surface to record and subtract any nonspecific binding background to eliminate the majority of the refractive index change and injection noise. Surfaces were regenerated with two subsequent […] injections of 10 mM Glycine (pH 1.5) at a flow rate of […]. The anti-Fc antibody immobilized surfaces were completely regenerated and retained their full capture capacity over twelve cycles.

[16] = biological target: T1, recombinant human IL-1α; experiment: as above
Experimental: as §4

[17] = biological target: T3, human CD20 on human B cell line Raji (human, UniProt P11836 1-297); experiment: preliminary cell surface binding study
T3 construct: whole, on cells; also called hCD20
T3 sequence (looked up): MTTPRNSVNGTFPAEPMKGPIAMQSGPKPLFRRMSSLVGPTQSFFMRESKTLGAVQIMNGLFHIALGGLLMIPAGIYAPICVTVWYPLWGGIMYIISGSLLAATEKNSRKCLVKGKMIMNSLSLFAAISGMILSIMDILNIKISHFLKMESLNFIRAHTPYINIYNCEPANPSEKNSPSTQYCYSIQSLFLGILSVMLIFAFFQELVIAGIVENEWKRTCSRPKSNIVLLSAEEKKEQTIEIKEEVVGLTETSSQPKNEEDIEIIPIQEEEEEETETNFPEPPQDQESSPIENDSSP

[18] = biological target: T3, human CD20 on human B cell line Raji; experiment: flow cytometry staining of Raji B cells, FITC goat anti-murine IgG
Description: The anti-CD20/anti-CD3 DVD-Ig was generated as chimeric Ig i.e the constant region was a human constant region. For binding analysis, human T cell line Jurkat and B cell line Raji were blocked with human IgG and then stained with murine anti-hCD3 mAb OKT3, murine anti-hCD20 mAb 1F5, and anti-CD20/anti-CD3 DVD-Ig. Cells were then washed and stained with FITC-labeled goat anti-murine IgG (with no anti-hIgG cross-reactivity). Anti-CD20/CD3 DVD-Ig bound both T and B cells, whereas CD3 and CD20 mAbs bound only T or B cells, respectively. The amino acid sequence of CD20/CD3 DVD-Ig is disclosed in Table 25.

B1: hIL-1α/βDVD2-Ig (bispecific antibody, human IgG1, kappa)
heavy: not shown
light: NIVLTQSPASLAVSLGQRATISCRASESVDSYGNSYMHWYQQKPGQPPKLLIYLASNLESGVPARFSGSGSRTDFTLTIDPVEADDAATYYCQQNNEDPFTFGSGTKLEIKRADAAPNIQMTQTTSSLSASLGDRVTISCRASQDISNCLNWYQQKPDGTVKLLIYYTSRLHSGVPSRFSGSGSGTDYSLTISNLEQEDIATYFCQQGKTLPYAFGGGTKLEINRTVAAPSVFIFPPSDEQLKSGTASVVCLLNNFYPREAKVQWKVDNALQSGNSQESVTEQDSKDSTYSLSSTLTLSKADYEKHKVYACEVTHQGLSSPVTKSFNRGEC
notes: 13F5.G5 V - linker (AKTTPP heavy, ADAAP light) - 3D12.E3 V - human Cγ1/Cκ; also called hIL-1a/bDVD2-Ig
With B1 the “Stoichiometry hIL1α:DVD-Ig” value [1] was 1.8, the “fold higher affinity than DVD1-Ig” value [2] was 3 fold and the “fold lower affinity than the chimeric 3D12.E3 Ab” value [3] was 3 fold. For the same binder, the “Stoichiometry hILβ:DVD-Ig” value [4] was 1.3, the “Stoichiometry hILβ:DVD-Ig” value [5] was 1.6 and the “dual-inhibition activity, MRC-5 assay with equal amounts of hIL-1α and hIL-1β both present” value (from here on “dual-inhibition activity, MRC-5 assay”) [6] was 1.2 nM. For the same binder, the “dual-inhibition activity, MRC-5 assay” value [7] was 1.2 nM and the “Stoichiometry hIL1α:DVD-Ig” value [8] was 1.2.

B2: hIL-1α/βDVD1-Ig (bispecific antibody, human IgG1, kappa)
heavy: not shown
light: NIVLTQSPASLAVSLGQRATISCRASESVDSYGNSYMHWYQQKPGQPPKLLIYLASNLESGVPARFSGSGSRTDFTLTIDPVEADDAATYYCQQNNEDPFTFGSGTKLEIKRNIQMTQTTSSLSASLGDRVTISCRASQDISNCLNWYQQKPDGTVKLLIYYTSRLHSGVPSRFSGSGSGTDYSLTISNLEQEDIATYFCQQGKTLPYAFGGGTKLEINRTVAAPSVFIFPPSDEQLKSGTASVVCLLNNFYPREAKVQWKVDNALQSGNSQESVTEQDSKDSTYSLSSTLTLSKADYEKHKVYACEVTHQGLSSPVTKSFNRGEC
notes: 13F5.G5 variable domains fused directly (no linker) to the N-terminus of 3D12.E3 variable domains, human Cγ1/Cκ; also called hIL-1a/bDVD1-Ig
B2 was tested, and the “Stoichiometry hIL1α:DVD-Ig” value [9] was 1.1, the Stoichiometry [10] was 1.5 and the Stoichiometry [11] was 1.8. The “Potency (IC50) M, MRC-5 bioassay” value [12] was 3.1 nM, the “Potency (IC50) M, MRC-5 bioassay” value [13] was 2.3 nM and the “Stoichiometry hILβ:DVD-Ig” value [14] was 1. For the same binder, the “Stoichiometry hIL1α:DVD-Ig” value [1] was 2.3, the Kd [15] was 2.6 nM and the koff [15] was 0.00159 s⁻¹. It also gave a kon [15] of 609000 M⁻¹ s⁻¹, a Kd [16] of 2.83 nM and a koff [16] of 0.000105 s⁻¹. The kon [16] was 37000 M⁻¹ s⁻¹, the “fold lower affinity than the chimeric 3D12.E3 Ab” value [3] was 2 to 3 fold and the “Stoichiometry hILβ:DVD-Ig” value [5] was 1.5. For the same binder, the “dual-inhibition activity, MRC-5 assay” value [6] was 2.2 nM and the “dual-inhibition activity, MRC-5 assay” value [7] was 2.2 nM.

B3: anti-CD20/anti-CD3 DVD-Ig (CD20CD3DVD-Ig) (bispecific antibody, human IgG1, kappa)
heavy: not shown
light: QIVLSQSPAILSASPGEKVTMTCRASSSLSFMHWYQQKPGSSPKPWIYATSNLASGVPARFSGSGSGTSYSLTISRVEAEDAATYFCHQWSSNPLTFGAGTKLELKRADAAPTVSIFPPQIVLTQSPAIMSASPGEKVTMTCSASSSVSYMNWYQQKSGTSPKRWIYDTSKLASGVPAHFRGSGSGTSYSLTISGMEAEDAATYYCQQWSSNPFTFGSGTKLEINRTVAAPSVFIFPPSDEQLKSGTASVVCLLNNFYPREAKVQWKVDNALQSGNSQESVTEQDSKDSTYSLSSTLTLSKADYEKHKVYACEVTHQGLSSPVTKSFNRGEC
notes: VCD20-linker-VCD3-constant; chimeric Ig with human constant region; also called Anti-CD20/CD3 DVD-Ig
B3: binds [17].

B4: murine anti-human-CD20 mAb clone 5F1 (antibody, V domains shown)
VH: QVQLRQPGAELVKPGASVKMSCKASGYTFTSYNMHWVKQTPGQGLEWIGAIYPGNGDTSYNQKFKGKATLTADKSSSTAYMQLSSLTSEDSAVYYCARSHYGSNYVDYFDYWGQGTTLTVSS
VL: QIVLSQSPAILSASPGEKVTMTCRASSSLSFMHWYQQKPGSSPKPWIYATSNLASGVPARFSGSGSGTSYSLTISRVEAEDAATYFCHQWSSNPLTFGAGTKLELKR
notes: Murine mAb
B4: binds [18].
